Results published in paper doi:10.1101/728246 (bioRxiv, 2019).

B1: Mycobacterium smegmatis Mfd (natural protein)
chain: MTAPGHTSVQTPIAGLVELALSDPSLQDVIRRAADRPADLALVGPASARVLVAAALAQNGPLLVVAATGREADELTAELRGVFGDSVALFPSWETLPHERLSPGVETVGARLMLLRRLARPDDETLGAPLRVVVTTTRSLLQPMAPDLVDIEPVTLSVGAEMEFEDVVARLVDLSYTRVDMVGKRGEFAVRGGILDVFPPTAEHPVRVEFWGDEISEMRAFAIADQRSIPEVPVQTVVAVPCRELLMTDDVRERAAALAAEHPTTENTVPGTVPDMLAKLAEGIPVDGMEALLPLLHPIEPTTLTRHLPEGAPVLVCDPEKVRTRAADLIKTGREFLEASWSTAAVGGDAPIDLEALGASGFVTFEEAREAAREGGHPWWTLSQLSDESAVELDIRSAPSARGSQHNLEEIFAMLRAHVATGGYAAVVTPGIGTAHRVVEQLGEADTAATILEPGTAPKAGVVGVLKGPLCSGVVLPGANLVIITETDLTGNRVTANEGRKLAAKRRNVVDPLALTAGDLVVHDQHGIGKFVEMTERVVGGARREYLVLEYASSKRGGGTDKLYVPMDSLDQLSRYVGGEAPSLSRLGGSDWANTKTKARRAVREIASELVALYAKRQSAPGHAFGPDTPWQAEMEDAFGFTETIDQLTAIQEVKSDMEKPVPMDRVICGDVGYGKTEIAVRAAFKAVQDGKQVAVLVPTTLLADQHLQTFTNRMAGFPVTVKGLSRFTDPAESRAVIEGLKDGSVDVVIGTHRLLQTGVTWKDLGLIIVDEEQRFGVEHKEHIKSMRTHVDVLTMSATPIPRTLEMSLAGIREMSTILTPPEERYPVLTYVGPHDDKQVAAALRRELLRDGQAFYIHNRVRTIDEAAARVRQLVPEARVVVAHGQMNEETLEKTVEGFWNREYDILVCTTIVETGLDISNANTLIVERADTFGLSQLHQLRGRVGRSRERGYAYFLYPPNKPLTETAYDRLATIAQNNELGAGMAVAMKDLEIRGAGNVLGAEQSGHVAGVGFDLYVRLVGEAVEAYRAAADGKTVATPQEQKDVRIDLPVDAHLPPEYIGSDRLRLEAYRRLAAAADDDAVASVVDELIDRYGPLPEPAQRLVAVARLRLLCREFGITEIGAVSASTVRLSPMVLPDSAQLRLKRMYPGGHYRATTSTVQVPLPRAGEGVGAPRIRDLELVQWVAGLVLVLNGKGQGDVDMSKFSNPAGEAKR
B2: Mycobacterium tuberculosis Mfd (transcription-repair coupling factor) (natural protein)
chain: MTAPGPACSDTPIAGLVELALSAPTFQQLMQRAGGRPDELTLIAPASARLLVASALARQGPLLVVTATGREADDLAAELRGVFGDAVALLPSWETLPHERLSPGVDTVGTRLMALRRLAHPDDAQLGPPLGVVVTSVRSLLQPMTPQLGMMEPLTLTVGDESPFDGVVARLVELAYTRVDMVGRRGEFAVRGGILDIFAPTAEHPVRVEFWGDEITEMRMFSVADQRSIPEIDIHTLVAFACRELLLSEDVRARAAQLAARHPAAESTVTGSASDMLAKLAEGIAVDGMEAVLPVLWSDGHALLTDQLPDGTPVLVCDPEKVRTRAADLIRTGREFLEASWSVAALGTAENQAPVDVEQLGGSGFVELDQVRAAAARTGHPWWTLSQLSDESAIELDVRAAPSARGHQRDIDEIFAMLRAHIATGGYAALVAPGTGTAHRVVERLSESDTPAGMLDPGQAPKPGVVGVLQGPLRDGVIIPGANLVVITETDLTGSRVSAAEGKRLAAKRRNIVDPLALTAGDLVVHDQHGIGRFVEMVERTVGGARREYLVLEYASAKRGGGAKNTDKLYVPMDSLDQLSRYVGGQAPALSRLGGSDWANTKTKARRAVREIAGELVSLYAKRQASPGHAFSPDTPWQAELEDAFGFTETVDQLTAIEEVKADMEKPIPMDRVICGDVGYGKTEIAVRAAFKAVQDGKQVAVLVPTTLLADQHLQTFGERMSGFPVTIKGLSRFTDAAESRAVIDGLADGSVDIVIGTHRLLQTGVRWKDLGLVVVDEEQRFGVEHKEHIKSLRTHVDVLTMSATPIPRTLEMSLAGIREMSTILTPPEERYPVLTYVGPHDDKQIAAALRRELLRDGQAFYVHNRVSSIDAAAARVRELVPEARVVVAHGQMPEDLLETTVQRFWNREHDILVCTTIVETGLDISNANTLIVERADTFGLSQLHQLRGRVGRSRERGYAYFLYPPQVPLTETAYDRLATIAQNNELGAGMAVALKDLEIRGAGNVLGIEQSGHVAGVGFDLYVRLVGEALETYRDAYRAAADGQTVRTAEEPKDVRIDLPVDAHLPPDYIASDRLRLEGYRRLAAASSDREVAAVVDELTDRYGALPEPARRLAAVARLRLLCRGSGITDVTAASAATVRLSPLTLPDSAQVRLKRMYPGAHYRATTATVQVPIPRAGGLGAPRIRDVELVQMVADLITALAGKPRQHIGITNPSPPGEDGRGRNTTIKERQP

Key:
SEC = biological target: the molecule itself; assay: SEC
[1] = biological target: the molecule itself; assay: negative-stain EM single-particle reconstruction

Protein | stoichiometry N (SEC) | stoichiometry N [1]
B1 | 6 | 
B2 | 6 | 12
